Measured values from US20070003522A1 (published 2007).

Molecular target: T1, mouse transferrin receptor 1 (TfR1) on TRH3 cells (293T cells stably expressing mouse TfR1) (mouse, UniProt Q62351 1-763)
T1 construct: whole, on cells; also called mTfR1; CD71
Assay: FACS on TRH3 cells, anti-TfR1 antibody staining after incubation with pseudovirus

T1 sequence (Q62351 whole entry): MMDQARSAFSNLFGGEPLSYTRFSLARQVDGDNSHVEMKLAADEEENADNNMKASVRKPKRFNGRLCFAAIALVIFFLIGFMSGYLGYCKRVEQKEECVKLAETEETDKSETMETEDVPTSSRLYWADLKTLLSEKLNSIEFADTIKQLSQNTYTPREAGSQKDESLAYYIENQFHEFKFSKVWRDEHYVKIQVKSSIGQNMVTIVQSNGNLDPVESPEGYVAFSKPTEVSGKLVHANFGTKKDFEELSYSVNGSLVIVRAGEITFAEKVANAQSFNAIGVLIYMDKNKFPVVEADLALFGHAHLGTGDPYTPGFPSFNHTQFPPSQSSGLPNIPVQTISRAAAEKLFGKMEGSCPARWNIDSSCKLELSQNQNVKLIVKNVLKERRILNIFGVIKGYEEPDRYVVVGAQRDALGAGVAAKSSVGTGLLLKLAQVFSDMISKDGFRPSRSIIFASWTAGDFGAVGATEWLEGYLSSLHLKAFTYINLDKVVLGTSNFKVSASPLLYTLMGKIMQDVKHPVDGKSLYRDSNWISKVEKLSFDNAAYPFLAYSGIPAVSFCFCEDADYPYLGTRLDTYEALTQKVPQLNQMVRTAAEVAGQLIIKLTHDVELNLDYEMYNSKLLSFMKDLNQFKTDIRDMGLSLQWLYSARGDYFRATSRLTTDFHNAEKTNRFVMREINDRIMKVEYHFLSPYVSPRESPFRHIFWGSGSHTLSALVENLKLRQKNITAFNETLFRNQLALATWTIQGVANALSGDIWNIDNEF

B1: wild-type MMTV (C3H strain) env protein on pseudotyped MoMLV virus (other)
chain: ESYWAYLPKPPILHPVGWGNTDPIRVLTNQTIYLGGSPDFHGFRNMSGNVHFEGKSDTLPICFSFSFSTPTGCFQVDKQVFLSDTPTVDNNKPGGKGDKRRMWELWLTTLGNSGANTKLVPIKKKLPPKYPHCQIAFKKDAFWEGDESAPPRWLPCAFPDQGVSFSPKGALGLLWDFSLPSPSVDQSDQIKSKKDLFGNYTPPVNKEVHRWYEAGWVEPTWFWENSPKDPNDRDFTALVPHTELFRLVAASRYLILKRPGFQEHDMIPTSACVTYPHAILLGLPQLIDIEKRGSTFHISCSSCRLTNCLDSSAYDYAAIIVKRPPYVLLPVDIGDEPWFDDSAIQTFRYATDLIRAKRFVAAIILGISALIAIITSFAVATTALVKEMQTATFVNNLHRNVTLALSEQRIIDLKLEARLNALEEVVLELGQDVANLKTRMSTRCHANYDFICVTPLPYNASESWERTKAHLLGIWNDNEISYNIQELTNLISDMSKQHIDTVDLSGLAQSFANGVKALNPLDWTQYFIFIGVGALLLVIVLMIFPIVFQCLAKSLDQVQSDLNVLLLKKKKGGNAAPAAEMVELPRVSYT
notes: On virions it is processed into SU (gp52) and TM (gp36); also called wild type pseudovirus; wt
binding result: binds
